The DeepSol protein solubility set

Assay: soluble on expression in E. coli; label from the status in PepcDB or PDB records
With “MAHHHHHHMELGTPNVLPGYDASKSANGSENAKTIISDVNANYNAERKNHTVTHNDEKEGTTHDGGGDEPPQTHSNTERDKEDKIKFEKKKKKSDKLKKEREKEIVVAYWLKGIVKILNAGLKNGDIKGSNFIGKKIAEVLKKVVEISHWNNVYDLIEIIKYLGKEIIRNNKMYFIIPNIIRRVLTIIRTEHFKQLYLYNNNYVDNLNKNNNFLVDKNTNKCINSKYVYEREIKNFEQSFSFYFENNSKKNTYHIPATNTLRHSIIEGITELIADIDTSWGETEQRTSYDLFMENDVILTMGYSVGVEKFLKNINKKKDGISVIVVGGDINRNGFRMAQLLSEDGVDTTYISDSAVFAVIPKVTKVVLGSVAVSSSGGVITKIGGYNIACSAQFNSKPVTIVLPLFKLINDPFYDPIRQNELQPGPSMIYNDADNLYVRIPKYDYIPEHLITLYITEIGPVDSFQLYNITKRTYHPDDLDLSFD” the “soluble on expression in E. coli” value was “not soluble”. For “MAHHHHHHMERCLLLSAWPTLHEREVKEASEFVRSSSVSRRDSMALSLNHAGAFPSASHSGTHRGSFATMLATGSRAASPHPHDPCATPPPGIRCLDLPEHYHARDTRKNKSAVNDYDEDEDDGAYRSGSCSRCLSRASSFSLGAGGMTPLAWKMSSSMNGESPSCRATESPCSAFAQEHLVATAVMERRVNRMAGGISFQGMTPMDALLAGRLAPPDRREEQQELDESGDARGVSPPFRERSMAPAELVAERTGRQQPR”, the “soluble on expression in E. coli” value was “not soluble”. With “MAHHHHHHMFAIRCPASMLWHPSVHHSLLLLRALEQPHTLLLDTHTASRGRLSVPLLSECAREVRIQTPPGHHEFDSPAGASTERSVLLYRAEDLLHIVNRPLSAGHDLGAACPTQSGVFASLLEYLEASTVSSHVISAIDALLVSLNTGDMETMRQTHACLVELIERLEASITDESLSEAHRTDQKEPLSTWPLFCTLQFLIEEGGMLTSAFPRTNKAYTRLCHSSKAVALHRRLVQRTVEQLLDVGSSANADVSQGARVEMNYPAKGFLREVQRHLASYNRSMEERTTDGVSGEKGPLNSRASGGRLGIQAVQARLPWTLQARPLRKG” the “soluble on expression in E. coli” value was “soluble”. For “MAHHHHHHMFKFVSSIGDAAYKAASKTGLAAGSEQPPYPCALPLQVIEDCEDTETTERVLNDTYAAVRDLLSDDLPLLHSTISDVQAHKPFKLVDFTDREGDIRLFTRPHVGSYNFARVTLTLDNVSPAKVLTFMHAQSLEARNRYSSNLCQYDVIARNPELPAQYIGNDNDHLEELCRMGIRDWHVEYNRYSAPPPVTARDFVYLVEKRYAPEQRCYYIYGTSVDYRDTAGIAIEKDNCVRGAVVFGWRFQHVGRKTYCTYVSCMSPNGWAPTFIVGWMKTAIAKELQNARRVLYQDVPSCHAAGASSEYAKGALAAYDAPITSCRQNKPTRDHSSSKSSAQKLGNAMEHEERRLLEDEKPIVFE”, the “soluble on expression in E. coli” value was “soluble”. With “MAHHHHHHMFQRARFLLLPIDDVLPAGSRWSRVTALPTSHAHPSGASRASRTGPVTANTTSALPPTPYITFIPTLHVASVKFYDAVLDYMRESVEKNSNVVVLLEGICDNKEGRIQQMDEYMQISRSEELRAAMLEKAEKNTLYNDETIRTICDELAVNYDVLSRELETVRLQECYLRPKMAALMGKNLCNEADIDMEEVEALMLEGDNNDHSGSYGACGSGSVVPITSIGSHPAVRRSREMKVARKARATCVDWLKHGVAGEVILPWGIYHVEGIQRNVLSLNAQDEGIVFVESGNDIRHVPFGIHRDLLVL” the “soluble on expression in E. coli” value was “not soluble”. For “MAHHHHHHMGDAENNENDKKCLWVPDEEVTNCYSCNAFFNVRVRKHHCRACGNVFCSNCSDNKIKISEYSYAEKVRVCDRCFMERSSPQTLLLQEDLGARKQINQDLKKALSEKMAIVERFKTFLLEFDSEILNNSDHADGSNDVMSLLKRGEKGLKDLNDKIRNYDSIIENQKKELEHLKREKEQKTELNKILHLRNHEIQQKNMNIKNLVKEKNELTLVKEESEGIIHSYKKQVEKLIIRCNQLELEKKRKNYTDQSSNYSFTNSSSQSYMMNSYRLPQNEMSVSYTVAQGPSDDPEEENCCNYCQRRVCSIM”, the “soluble on expression in E. coli” value was “not soluble”. For “MAHHHHHHMGGYIGYNLVYNQQASVSQALWSREDEDVAPVSMPVRPRVALVNMTENLRSCAMGGLRAWLDVADEVELEFPTVTFVEDDEAGAIAGLAAEVRRAALFAWVELKERHEMDAPFGVKPLCCVVFRSITEVDGQALDAWDVQEVELRRWHGKRFVTRHCVGASVDGKRAMVLMHDVEGVIDVGPAAALAGGRVSDCGALVRQYGAPSTASFRRWKLSAEAQSSSTPVQPPAKSLQGLGIRLRDGQRCQLWQSPLHIFAALGAVLRYNRADAAVYPNHITTPVPVSQSASAVSASLWGCVKEWALRCTPTLLHWYTARQAERMERQRQLSSTFVVVVRLAEERAAVTSDVLRVVEEHVAEWMRDMNGASPMKTSLSTANRVCVRDAAARPEELMAAPTIQVDLTDTVCSVIAAEWLLIRLTSLFAALGLEPALAQLVAVPGPQASTSLLYPTPNTAHLRHLWLSRSATTSSSTITDNDAKSPRVTWSGRTTQGEHIAGCAATMPIEAGYVVSEHYFSAF”, the “soluble on expression in E. coli” value was “not soluble”. With “MAHHHHHHMGKRDLQKEKQQELAAIWGSEVQGDARFPKRRRAAQKQGLGAVENNDDVDTDVLSDIVSDAGSITSKHSDTAKKETRKTAKKKSTNYRLHCFVEPGTELNAVRTVFEAYEPKVEIRTAQKGNLLNKSQFAVLTFRNKAMALHAVKKLDGTNQRDLLGVSSLKLNLMLTRQQSKIARKTFNRKIRQEKERNQLMEEQADLAFIRNFLKQHSGAKKDKQNGKALSLS” the “soluble on expression in E. coli” value was “soluble”. For “MAHHHHHHMGTLEAQTQGPGSMDNKKPKIITIASIKGGVGKSTSAIILATLLSKNNKVLLIDMDTQASITSYFYEKIEKLGINFTKFNIYEILKENVDIDSTIINVDNNLDLIPSYLTLHNFSEDKIEHKDFLLKTSLGTLYYKYDYIVIDTNPSLDVTLKNALLCSDYVIIPMTAEKWAVESLDLFNFFVRKLNLFLPIFLIITRFKKNRTHKTLFEILKTKDRFLGTISEREDLNRRIAENNNFDLNKDYIKEYENILEIFLKKI”, the “soluble on expression in E. coli” value was “soluble”. In the case of “MAHHHHHHMGTLEAQTQGPGSMSVFSGFPASPPDAILNLTVLYNADTNPKKVNLGVGAYRDESGKPWILPAVKEAEAIISSDLSKYNKEYPPVAGFPLFLEAAQFLMFGKDSKAAQEGRIASCQSLSGTGSLHIGFEFLHLWMPKAEFYMPSTTWPNHYGIYDKVFNKLKVPYKEYTYLRKDGELEIDFSNTKKDIQSAPEKSIFLFHACAHNPSGIDFTEAQWKELLPIMKEKKHIAFFDSAYQGFATGSFEADAFAVRMFVDAGVEVLVAQSFSKNFGLYGERIGCLHVVHAGVEGSVEKNKALSAAMVSGMTLQIRKTWSMSAIHGAYIVQVIVHDKRLLQMFYDNVKEMSARIHRMRSLLHASLAKRKTPGPGSKGTWDHILTAIGMFTFTGLTPEHVDYLKEKWSIYLVKAGGRMSMCGLTESNCDYVAEAIHDAVTKLPFKK”, the “soluble on expression in E. coli” value is reported as “soluble”. With “MAHHHHHHMGVPTMERSHGRRSPDEVRYPHIVLNVLGQSYSSACIEVGSTRVVCAVHHPQQLIDEYRGSRGRVACTVRRSSRAQKHELAFRADVTPEKDLALALEGVVEQAVVLEKIPQLLVEVAVEILAEDGGLWDAIATGVCAALASGGFEMYDTFSACGAALLPDGSIVTDPSATEWNTAKATAVTCAMLNSGNMCFTAQRGSCEPTTALDLVMAALKGTLARKNVISSQLCEQFAF” the “soluble on expression in E. coli” value was “not soluble”. In the case of “MAHHHHHHMHFSLQKKNICTNSTKCVNVHPYLFPPLGMVPKRVRYDVHRGGEQHTDITNLLHTFKRFKMVKTSSYRRKSRSSPNGQGQKAKIGIKRLSAEYVKTGQLLVKQRKIIAFNLERKTRRRNFKYYPGEHVKVTKNTSLVALTNGRVKYTFHTTQNVLIVNVLPEEIDELREEDLYRYRTEHVRSLEENRSLVYLRMKHVVSFPPSKETQFRKPPLRPQFLARYDIEDNPTLREVPVLYHKPK”, the “soluble on expression in E. coli” value is reported as “not soluble”. With “MAHHHHHHMHLDEEYGNRSSSVSCDSSDAASAHSSSSDSASSAGGRQQRQRGNGSGGTETASLLSLPTASHANHAGCSVCGSATSLASRVSLLSTLSQHSAASYLSFISVLRPSITAGSAAGGTGAGGSADGDGAAGAGQQMHESEDGNTNLPLILLEQLALGLHRFMEAYPAELLDRYGLRSVSWSSIARMFATVEKSLVNTTTTAGAAAGAAAAAAPRQANHFPNDQEPPQPLFNLAQDIRYNKGMGYECLGLLFAKVVAPLLDPASSRAIASTSWSPPQQHQLRRSTGEATGTEDDDGSGGGARSDGGGTQEEFFANAAAVAATVGRAVLTIDDDPATRASVEAALSRCLTAYETVAPQVVDMNLPTILRLAARTAATSAGSTTSLRASASPSSLSIVLVDFVRDITARLGRGNDLPHLVDALLQRGDFAANASATAAASAVVDGSGDKASTIRSLRAVFSLPPVRQAVMEAAGTSLDPESLLRRLSGVAAELEEDNKSSSSSSSAQDEKQVELSSTARSCRKHDDARVQRMLLALELMEALLAGVTPTCVSASAVLEHTTQLELLLSSSFMAAVEELKGVCGEALDDRRALMIQHMYTIRQCRAVTILCLQDLGTQQVHDYLRMLEDALWQLTSHVGNLVGSLTLAELQPLLRPHPARYGGSEVLAPSPSALEQLQVQLLPSSLILQRPVASARSDRRPGNSRRARRGAP” the “soluble on expression in E. coli” value was “not soluble”. In the case of “MAHHHHHHMHPFYTIRYPPSKGSNESQPILVTDTAIEPLFFCIVYSIEFQCPVQTTESRTANSRSSSFPFGGRASGSGGKREANELHVCPVENTSKLLGNVTYVSCLDHNPTLLASLQTAVDAARAIPIPEDEQKVPLQLCVRLLHKQTRWLWEESRPLVEWTFKIVKTRGLSYAAVPEASSGASARNTNVEFVHASGPAQIREVLQFILKHSYEAIDLNTFSDFKSGELVFEVFVDQAR”, the “soluble on expression in E. coli” value is reported as “soluble”. For “MAHHHHHHMIGGQHTKERLSERLQDCQNQPKNRGYLPGTKLLTGGYSTRTLQGNWAEERMDAGYYDGEAVFPTHLARAWTTDYRTMTSNVSGSLTRPVFDQATLMDIVDHKHRSYPAHQPYLDQQRDEVMQERFKTTTRTSYINPEERKREAQLHIPPVIGRTPTAQARAVILRIQRQLLLSRHGESAFPGNILRQIRLTLQRNDTAGEGMLTVEEAEKGFEEAFLVVSRPECVALVRAFDLKEDGTISIAKIMEELRGELRDRRYSLVEKVYEMLKGFSPDGIVRLQRLAELVDVDSMNAVMNGKVTSSLAHDAFVEQWDLPIDSYISFENFLLYFMDASFEIESDQEFEVFMRNVWHLSGGNGKSMNTSCRRVRVVHRNGRMSTQEVKNDLCIKDSDPNLQERIIANLASWGIKDVARVEMLPRNL”, the “soluble on expression in E. coli” value was “not soluble”. With “MAHHHHHHMIMKKLIENNVIKLNYENFLTKYKLNSGNEQKDLSDEELYEHFIINTFNYSKPLGCLPPNISNIKEYYLDGINIFEVINYVNISERMYKFENITEEDDKENEDDSKEIFSHSEPDEKHDCEIKSRKNNKNSKISNNNKKDGNNIKSNKYRRFYRFLLYDGKSFIYAYEQEYNEIFTYLESNKYIYPKIILYNKPLIRRGAILLKKNQVIILFKGCIVSGNDTEDNEIEDFPIISESNNINSGVHQNIHDDLYTTRNTYDNKNMTDDSHNLIRKFYYADKGMEKEEYKTYYENTNNCGVLSNTNRSNEYYSRSSMHNNNNYSFNEYAKHNYKYDQNHVKKNIEYYYNKDKNCYITSIDYNNNNNNNNNSINNSNNEYTGNNYNNNNKGNHYYYHNIHNNHMHDTHNSKNYIGSNRYNTDKASYNYYNNHYKNKQHYIDPQRNNYYTHGINHDDYSKENYLNAFEYKNHNSYKEPLRNYSNDHPRNSYNKNKYNIFNENKRNSSSKNNRNSSSKNNRNSSNKNNRNSSKEYFKRNSNKFDNAYDNTYHDNNTRINHHSDFSRKNNDGFYRNNDNNYNNETYVKNHFSNEAKYNAGYQRLSDNLENRNRMNCENNNNYYSTYGHSDYNVNYNNKNNRNIPLSNLNEKNNHIPSNNYYTENYLPEKEGNRNILTNQINNYSINSVNNNFEQINPSTCNYNKNNVFPYNKEDDKNKFVEMKNVEEEYHNDNQERARKNSENSKKLIDLTEGFFSSEFFHKSYECNDVNKNSDIIILDD” the “soluble on expression in E. coli” value was “soluble”.
